Results reported in a protein production outcome set (Wang et al. 2014).

Assay: label from the status in PepcDB records
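Note: failed if final PepcDB status was selected cloned or expressed and not failed if soluble or beyond.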

Row | Sequence | protein production
1 | MYDSRGVALHSELIHRWNHAFSILSIVAFPKKRLLFAGSQDSKILVFDLPTYNLIHTIRLGESQEETHTRSSVLCLTGSEDENFLFSGGADSLVRIWSIGEKTIRDDFLPVTEIATVYSVTDIGDIFSLAYLDSLETIVFGCQNASLLYVENLIQKIEKKSSDGVENINKLPHRRYDKFFDSLGPTGYSSNSLSQTSLTSLQENCGAAIIEVPSENIIKYAHYGFIYSINKLCPRFNQLLEKSSRTSGAEHIISSAGDGISKLWEFSKDKGQNTVKISLINDKIDNEDSVISQTIEFPFLYCGLTDGIIKIWDLNTQQIISTLKTKHESDVISISVYMDHVFAIDESGITHFYQNQVNHWNPQQGKILSSEIFSKSNAGSVSLLTGGSDGSLTLWDITSLLSAVPLSSNSPINASSTLQTTNLWAAYQSASLNNEEMLNTLRELISFQTVSQSKDTTNTLSLRRCAIYLQQLFLKFGATNSQLFPLPDGGNPVVFAYFQGNGKVSQVKGAKKKRILWYGHYDVISSGNTFNWNTDPFTLTCENGYLKGRGVSDNKGPLVSAIHSVAYLFQQGELVNDVVFLVEGSEEIGSASLKQVCEKYHDIIGKDIDWILLSNSTWVDQEHPCLNYGLRGVINAQIKVWSDKPDGHSGLNGGVYDEPMVNLVKIVSKLQNEQNEIMIPNFYSPLKDLTEEEYQRFQKITELANIDENTTVQDLITNWTKPSLSMTTVKFSGPGNITVIPKSVTMGISIRLVPEQSVEQVKRDLKAYLEESFKQLKSQNHLEIKVLNEAEGWLGDPTNHAYQILKDEITTAWDVEPLLVREGGSISCLRMLERIFDAPAVQIPCGQSTDNGHLANENLRIKNWSNLTEILSKVFNRL | failed
2 | MYDWFSEMRKKDPVYYDGNIWQVFSYRYTKEVLNNFSKFSSDLTGYHERLEDLRNGKIRFDIPTRYTMLTSDPPLHDELRSMSADIFSPQKLQTLETFIRETTRSLLDSIDPREDDIVKKLAVPLPIIVISKILGLPIEDKEKFKEWSDLVAFRLGKPGEIFELGKKYLELIGYVKDHLNSGTEVVSRVVNSNLSDIEKLGYIILLLIAGNETTTNLISNSVIDFTRFNLWQRIREENLYLKAIEEALRYSPPVMRTVRKTKERVKLGDQTIEEGEYVRVWIASANRDEEVFHDGEKFIPDRNPNPHLSFGSGIHLCLGAPLARLEARIAIEEFSKRFRHIEILDTEKVPNEVLNGYKRLVVRLKSNE | not failed
3 | MYEAHFGLKQLPFTLTPNTSLFHGLSPHYEAIHTVLSAISMGEGIIKVTGEVGTGKTLVCRMLINELPSNVELLYLPNPVMNGHELRQALAKELWLDQSGDDIALIDRIHEKIIDLHAEGKLVVVFIDEAQALSDEALETLRLFGNLETDYKKLLQIVLFGQPELDERLQQHNLRQLRQRITFSALLRALNMNETVAYIRYRIAESGCENNPFSLVQMKAIWKATNGIPRLINQVCHKSLLIAFSEQVNNVPSKAVFNAIIDTADTVKPKHYFPTFWGWRVSLEHHHHHH | not failed
4 | MYEEWKIVKREAPILGNDQLIENIWKMKREDSPYDIISLHKVNLIGGGNDAVLILPGTWSSGEQLVTISWNGVHYTIPDYRKSIVLYLARNGFNVYTIDYRTHYVPPFLKDRQLSFTANWGWSTWISDIKEVVSFIKRDSGQERIYLAGESFGGIAALNYSSLYWKNDIKGLILLDGGPTKHGIRPKFYTPEVNSIEEMEAKGIYVIPSRGGPNNPIWSYALANPDMPSPDPKYKSISDFLMDSLYVTGSANPYDYPYSKKEDMFPILASFDPYWPYRLSLERDLKFDYEGILVPTIAFVSERFGIQIFDSKILPSNSEIILLKGYGHLDVYTGENSEKDVNSVVLKWLSQQR | not failed
5 | MYESANVSDDADRTAFRRAEKKYKLYYEQDSKFSRKKKLPKPIDLSELLDFNLISQNFNNDGVLPDGIRVSKVDSSPVFCIDNRPGFYFIPDALSLKEQCKWIKESLTSFPQPPNRTNHNAIYGPIDDLFDSAKENKVLVQDDLTNNKWKFYEEVDIEKATRSSCKSVSASVLLRKLRWSTLGLQFDWSKRNYDVSLPHNNIPDALCQLAKTHAAIAMPDGEEFRPEGAIVNYFGIGDTLGGHLDDMEADWSKPIVSMSLGCKAIFLLGGKSKDDPPHAMYLRSGDVVLMAGEARECFHGNLLHFQLDGIPRIFTGEENADIGALESELSHESGHFFAEYIKTSRININIRQVF | failed
6 | MYEVELKGYANDEIFEKVRETFEFMRKEIHEDIYYQHPCRDFSKTDEALRIRIKRFNGHNEVFLTYKGPKIDEKSKTRLEIEVEIQEDVDKYFELLDRLGFKEVLKVVKTREKYYVEKGVTITLDEVEGLGKFIEIETLVKEKDEIPEAVEKLEKILRELGVEKFERRSYLELLLEKRTELNI | not failed
7 | MYFFVPTANSKINQMIFYLSSMNLDMIKEYILSFGIWAPITSFLLMVLQSVIAPIPAFLITLSNAAIFGWVKGAILSWSSAMAGAALCFYIARGLGRDAVEKLTSKFALKDIDGFFEKYGKHTILIARLLPFISFDLVSYAAGLTSMNFWSFFIATGIGQLPATIVYSYVGGMLTGGAQLLMSGLLILFALSIAIYVGKKVWNEKRGKNDK | failed
8 | MYFLVTTLGVGFYLMKRMEKSEEDYLVAKRGLGAVPVGVTLALTVLGTPHILGVMESAYDIGLPAVWFSFAHAIMLAIVCLFTGRWARKLKVESVPEFLDVIFSNYWLRLMVGAVIAGAIFGICTLETQGLGVFVSILTGTSIEVGIVIGALIGILYVVLSGMKEVAWLNVLNAVILYIGIIAATFVLGSGLQNGWEGVNEFYISNDLAGKLNIFGSWEVFVGFALVNVLATVFFQGISQQGLHAALAAKSPDVLRKAMLIAVPVNGSFAVFAAVMGMAARATPEFAELGAKTATPAMIVSVLPTWASALLLATCLVAVLSSYAITLLAPTTIFVNDIYKAVLKPNASHEELLRLSRILTVLLAVAALIPAVSLPPILAAMMWLFSWLVPVFWFVIFGLFWKRSAPAAIITCLLVWVTINAWTMTPLPEVLGAPGWLHQVYLALIVTLVIGSLLNAVLPGKPGLFREKALAVRG | failed
9 | MYGISVFLGEEITNDTIIYIKKMKALGFDGIFTSLHIPEDDTSLYRQRLTDLGAIAKAEKMKIMVDISGEALKRAGFSFDELEPLIELGVTGLRMDYGITIEQMAHASHKIDIGLNASTITLEEVAELKAHQADFSRLEAWHNYYPRPETGIGTTFFNEKNRWLKELGLQVFTFVPGDGQTRGPIFAGLPTLEKHRGQNPFAAAVGLMADPYVDAVYIGDPTISERTMAQFGYYHQTNQFLLEVAPSESRYLKRILGTHTNRLDAARDVLRSELSRTSEMFRKDEIATIESEQTEARPVGTVTIDNEKYGRYMGEIQVTLVDLPKDEKVNTITRIIEKDQTILPLIKAGNQFTLVTEGTIENEFRKLNN | not failed
10 | MYGRKGYQLIKDFATGEKGQLKPFNSKLFDETIEECDQNHHLIQSLIRKMQQEGLDVQNNRNADHYGALIHHLALIRNKRCLMAYVYNRAEIVRDLAWRVGLELLDLPSEIQEKLTTLEKEYFKNHSVALKSYMGKVGIELNVDMVPPKDPYIKVRILDDIDEGIVLSDKTTNFARHSMHFLKRTDAEPYIARGQMEELTG | failed
11 | MYIEMAQQQQQSGSDNSMAPVWIVILLFITAYFVWALAHQYIVSFVFTINIWQARLVNLFLNNQLLANQIYLMQTLDPNTVNWDQMVTVMRAVGDYMRYPVICILVVLAFVLYNSNVTLKYRKTYDMKSLRAQEQFNWPAIMPIVKEDLVSQDVNKGPWAMALTPMEFARKYNLLRKDDALLDNPVPGEEMTAGIRRGDAKRVFTMQLGPYWDGFERCSPQAYALSAVFMARMNRDRDAANNILKVLDKTFVDGKPDFSVARPVMKKYQNSELVQEVVAKHAYVLTVIASLLEAAREDGVVPSSEFLWLKPVDRRLWYMLNCVGRQTPYSEVAGPFAHWKAEKEMGRRSLVPMIDEAIRALEIAVKEVRLTPRQMEELEP | failed
12 | MYIQPLNPTGNVGLTILASLTPIIALLILLAGLRITAWLATLIGSIITILVATFVWGTPIIQVSYAWLIGALVGTWAISWIVFWGLTIYNTLVLTGKFDAFRDWIVRNSTNDARVQAIVLAWSLGALFEGLVGFGYPWAFIAPLLIYLGFDDLKALQVSALANNAPVSFGALGTPIIILASVTGLPLLFISSSVAKVVAILALLPPWILLYLVDKWRGIREAWPIAILGSLSYILGQYPVASFIGPYLPDITGSLISFVILLLFLRVWRPKRVLSLRSVQPNGGESKKYSTKDVIEALSAFIVLIIVVTLWTGPWSPLTKFSLVTLSQTAYSSLLHKNVGVSFAFNPFVAGTSILVSWIIISLVLRASPRIMGEAIKRSFHQYWGGILTGIFVVGLAYVFNFSGMAYSLAWKTSDLGIAFIIVSPLFGWIGCALSGSNTSTNALFGAFQVTTARLTGLPVGLPPALNSVGAELAKPVAPQTASAGVSTTKYVRKEGIVIRKNLPWAIGILIYLILIGVLYAFLAPSLFVH | failed
13 | MYIRGVGDIIYFLQQLHPLEQALLAGIFTWGMTALGAASVFFTREVSRKVLDSMLGFTAGVMIAASYWSLLAPAIEMSEGRSIPAWLPAVLGFLLGGLFLRGIDKILPHLQFGSATEAAEGLKTSWRRNTLLVLAVTLHNIPEGLAVGVAFGAAASGYMYSLPAAIALTTGIGIQNFPEGLVVSVPLRREGMSCFKSFNYGQASAIVEPIASVIGVAAVMLVRPILPYALAFAAGAMIFVVVEEIIPESQHGGNAPLATIGTMIGFSVMMVLDVAFG | failed
14 | MYKGYKIGVAVPAYNEEKLIGETLKGIPPFVDRIYVVDDASKDNTSKVVEEMMRHDKRIVLIRHAKNKGVGGAIVSGWKKGLEEGMDILAVMAGDNQMDPRDLPALLDPIVEGKVDFTKGNRFLLSYDLKMSYWRRFGTFLLTILTKIASGYWHINDPQNGYVAIKADALRKIDLDKLDSGYFFENDLLIKASVANLRVVNVPVKIRYKIGEKSKIKYSKFIARTSWLLLRSFLWRIWVEYVKRRKFLGFLYLLGFTLIVTSFLIFLIYPTRLEIPLIVLLAGAAIFLGSCIKEKNLKQYLK | failed
15 | MYKIDEVTKQVGLTKRTLRYYEEIGLIHPPERSEGNIRLYTDEDIARIKRIVEAKEVLGITLQEMQHFLSLKERMEQRRNSENPRDREVIQEIKEMLEKQVQTLDEKMEQMQRVKGELEDSLHRAVTFLENTKGE | failed
16 | MYKILIVEDDPNISSLLQSHIQKYGYEAVVAENFDDIMESFNAVKPHLVLLDVNLPKFDGFYWCRQIRHESTCPIIFISARAGEMEQIMAIESGADDYITKPFHYDVVMAKIKGQLRRIYGDYAPNISERIVEVEGLKLFPERPEIHFGSEQVLLTKKEAILAEMLLSKFPRTASREDLLAALWDDESFVEENTLNVNITRLRKKFNELGIENAIETVRGLGYRFNATWSE | failed
17 | MYKLISPHLSGHAMWKEALEEFGSGPIHGSGYFENYLPIDYSEAGFHHYLKERTDAADPSVPPPEGFVHCSYFWIVDDDDVLVGFLALRHELNQHLLEVAGHIGYGVRPSARRKGAATAALKLGVHEAQALGIDKVLLCVAGDNEASRNVIEKCGGVYESTIRGMRRYWIATDS | failed
18 | MYLAEALAQRVEAQRRYSELNQLLLDVAKVQEGDQPAENPHEILTELEELTTRINDLVRRINRTNSVTEFSEGMTLADALSVRDALLKKRTLYSDLADQLTSRQDRYSRSEIKYVATMDAREIRKKADLAAKEYRQLDVDIQRLNWQTELQ | failed
19 | MYLISELAVKAGLSRTTLLYYEKLGLIRGQRLDNGYRYYNESDLQQLFLIQQLQSAGLSLKECEECLQAKLDRTLLERRLSQLDDEIEKKVRARELLLALLGERPQRELHHSLSKHAPNAYLSWLNTQGYSEKEALRLKWLSKDMNEHDIYMQDFMTVFASLQHWGPGSEQDSLKAISLMSMQNMQHILDIGCETGLSTLLLAENSSAHITAVDNEPIAIEQLEKQRQHSPWKEQISPVLGSMTALPFAAKSFDAIWAEGCVYIMGMENALKQWKPFLADNAILMVSDLVWLTENPKPEAQEFWQSEYPDIQSIPSRIKLFKKLGYEVMEHFSLGIDAWQNYWLPLQNRVQELKLRLTNSQALSDIEKEIAIYERSAAKDFTYQYFVLKLNH | failed
